Data reported in PMC10844593.

Experiments:
[1] = biological target: Flag-tagged human AMPK-α2 fusion protein (human) (UniProt P54646)
[2] = biological target: Flag-tagged human CHREBP fusion protein (human) (UniProt Q9NP71)
[3] = biological target: Flag-tagged human AMPK-α1 fusion protein (human) (UniProt Q13131)
Chain of Flag-tagged human AMPK-α1 fusion protein (human) (Q13131 whole entry, the tested form may be a part): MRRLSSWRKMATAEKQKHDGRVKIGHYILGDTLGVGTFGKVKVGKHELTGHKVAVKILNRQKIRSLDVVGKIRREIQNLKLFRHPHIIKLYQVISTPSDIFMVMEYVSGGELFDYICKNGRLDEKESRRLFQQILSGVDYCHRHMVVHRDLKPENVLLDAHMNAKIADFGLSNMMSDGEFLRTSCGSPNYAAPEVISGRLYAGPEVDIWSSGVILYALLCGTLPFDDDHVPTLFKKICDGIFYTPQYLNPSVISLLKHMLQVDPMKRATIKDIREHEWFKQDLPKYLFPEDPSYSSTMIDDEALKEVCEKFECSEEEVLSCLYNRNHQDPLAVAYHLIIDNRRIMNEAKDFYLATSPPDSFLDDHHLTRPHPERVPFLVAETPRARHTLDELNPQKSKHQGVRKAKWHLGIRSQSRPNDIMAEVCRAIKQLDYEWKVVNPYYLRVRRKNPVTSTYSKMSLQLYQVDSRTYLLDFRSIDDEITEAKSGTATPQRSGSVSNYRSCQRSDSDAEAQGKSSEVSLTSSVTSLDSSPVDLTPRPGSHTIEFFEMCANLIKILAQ

Chain of active CDK6/Cyclin D3 kinase (Q00534 whole entry): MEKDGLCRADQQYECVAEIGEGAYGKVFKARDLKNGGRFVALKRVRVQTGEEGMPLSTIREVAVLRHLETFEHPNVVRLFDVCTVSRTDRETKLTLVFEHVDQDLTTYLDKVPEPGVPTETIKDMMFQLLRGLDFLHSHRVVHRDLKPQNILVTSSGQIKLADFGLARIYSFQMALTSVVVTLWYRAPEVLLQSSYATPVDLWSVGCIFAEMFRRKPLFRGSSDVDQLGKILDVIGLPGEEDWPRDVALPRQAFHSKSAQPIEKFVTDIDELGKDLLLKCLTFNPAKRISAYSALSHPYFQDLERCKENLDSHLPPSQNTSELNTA
Chain of active CDK6/Cyclin D3 kinase (P30281 whole entry): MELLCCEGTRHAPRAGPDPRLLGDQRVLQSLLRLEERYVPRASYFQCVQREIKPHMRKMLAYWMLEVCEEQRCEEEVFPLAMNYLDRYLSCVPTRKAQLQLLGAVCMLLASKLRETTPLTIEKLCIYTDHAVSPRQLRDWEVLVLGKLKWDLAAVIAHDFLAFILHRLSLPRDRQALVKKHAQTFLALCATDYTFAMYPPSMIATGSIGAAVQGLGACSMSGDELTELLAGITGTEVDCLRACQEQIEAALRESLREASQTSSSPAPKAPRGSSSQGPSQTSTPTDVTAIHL
Chain of Flag-tagged human CHREBP fusion protein (human) (Q9NP71 whole entry, the tested form may be a part): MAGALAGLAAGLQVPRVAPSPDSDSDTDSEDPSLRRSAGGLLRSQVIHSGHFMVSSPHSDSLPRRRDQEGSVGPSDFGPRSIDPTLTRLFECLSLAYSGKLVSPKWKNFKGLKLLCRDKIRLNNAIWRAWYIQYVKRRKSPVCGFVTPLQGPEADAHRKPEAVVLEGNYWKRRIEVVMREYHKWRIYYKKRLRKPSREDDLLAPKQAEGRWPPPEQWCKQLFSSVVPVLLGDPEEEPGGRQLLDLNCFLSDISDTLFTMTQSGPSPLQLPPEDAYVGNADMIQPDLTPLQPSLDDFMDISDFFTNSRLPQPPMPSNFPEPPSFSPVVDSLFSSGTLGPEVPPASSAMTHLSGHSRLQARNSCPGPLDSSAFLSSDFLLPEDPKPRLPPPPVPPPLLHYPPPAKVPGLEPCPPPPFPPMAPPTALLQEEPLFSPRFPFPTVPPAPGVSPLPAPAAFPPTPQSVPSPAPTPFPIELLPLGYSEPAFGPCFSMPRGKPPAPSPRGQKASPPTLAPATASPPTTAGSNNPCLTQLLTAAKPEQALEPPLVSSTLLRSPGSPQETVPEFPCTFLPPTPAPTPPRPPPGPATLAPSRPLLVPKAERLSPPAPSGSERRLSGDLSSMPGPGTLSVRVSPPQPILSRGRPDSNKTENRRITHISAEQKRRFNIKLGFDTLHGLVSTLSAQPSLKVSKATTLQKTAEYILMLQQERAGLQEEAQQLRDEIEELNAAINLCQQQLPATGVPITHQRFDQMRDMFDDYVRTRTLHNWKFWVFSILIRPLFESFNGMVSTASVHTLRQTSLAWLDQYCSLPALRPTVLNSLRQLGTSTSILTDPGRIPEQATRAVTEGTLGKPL
Chain of Flag-tagged human AMPK-α2 fusion protein (human) (P54646 whole entry, the tested form may be a part): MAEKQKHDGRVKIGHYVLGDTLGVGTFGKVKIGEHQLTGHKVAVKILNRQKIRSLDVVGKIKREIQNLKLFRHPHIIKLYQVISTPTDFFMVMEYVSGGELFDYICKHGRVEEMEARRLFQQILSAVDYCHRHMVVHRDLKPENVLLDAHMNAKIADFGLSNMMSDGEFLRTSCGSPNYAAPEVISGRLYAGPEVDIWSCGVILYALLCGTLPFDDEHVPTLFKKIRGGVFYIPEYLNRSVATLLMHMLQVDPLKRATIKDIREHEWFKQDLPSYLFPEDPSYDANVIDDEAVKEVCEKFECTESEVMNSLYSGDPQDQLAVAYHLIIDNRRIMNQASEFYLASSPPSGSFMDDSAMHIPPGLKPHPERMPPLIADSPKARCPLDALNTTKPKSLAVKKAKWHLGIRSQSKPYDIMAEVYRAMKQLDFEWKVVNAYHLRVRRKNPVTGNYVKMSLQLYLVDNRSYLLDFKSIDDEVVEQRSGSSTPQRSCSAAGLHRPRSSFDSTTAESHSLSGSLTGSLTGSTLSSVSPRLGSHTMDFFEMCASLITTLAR

## active CDK6/Cyclin D3 kinase (from UniProt Q00534 1-326; P30281 1-292) (complex)
[1]
  fold increase in total spectrum counts (TSC) of phosphorylated peptides of the substrate after in vitro kinase reaction with CDK6/D3 (mass spectrometry): 46.8 fold
[2]
  fold increase in total spectrum counts (TSC) of phosphorylated peptides of the substrate after in vitro kinase reaction with CDK6/D3 (mass spectrometry): 6.43 fold
[3]
  fold increase in total spectrum counts (TSC) of phosphorylated peptides of the substrate after in vitro kinase reaction with CDK6/D3 (mass spectrometry): 14.7 fold
